One molecule from paper PMC8550936 (2021) can be followed below.

One may read the Kd as the concentration at which binding is half-saturated. A higher Kd goes with a looser complex.

The target in this assay is Venezuelan equine encephalitis virus (VEEV) virus-like particles (Venezuelan equine encephalitis virus, …, UniProt P09592 813-1254). The experiment in a line: SPR.

B1: LDLRAD3(D1), cleaved monomeric ectodomain of mouse low-density lipoprotein receptor class A domain-containing 3, domain 1 (domain or fragment)
chain: not shown
Molecule B1 registered a Kd of 58.2 nM.
